Results from patent US20240374744.

Test system: huHF(+)-DOX (huHF(+) protein nanoparticle-doxorubicin conjugate)
Sequence (chain, as listed by the source): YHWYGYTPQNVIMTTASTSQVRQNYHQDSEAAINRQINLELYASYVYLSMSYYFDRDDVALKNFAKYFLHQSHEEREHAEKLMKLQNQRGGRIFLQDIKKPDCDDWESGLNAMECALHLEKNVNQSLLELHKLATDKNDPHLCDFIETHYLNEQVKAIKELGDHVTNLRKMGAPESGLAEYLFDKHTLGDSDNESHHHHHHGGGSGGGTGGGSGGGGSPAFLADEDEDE

B1: PrCP (prolylcarboxypeptidase) (enzyme, UniProt P42785 46-496, looked up, species assumed)
Lysosomal Pro-X carboxypeptidase: KNYSVLYFQQKVDHFGFNTVKTFNQRYLVADKYWKKNGGSILFYTGNEGDIIWFCNNTGFMWDVAEELKAMLVFAEHRYYGESLPFGDNSFKDSRHLNFLTSEQALADFAELIKHLKRTIPGAENQPVIAIGGSYGGMLAAWFRMKYPHMVVGALAASAPIWQFEDLVPCGVFMKIVTTDFRKSGPHCSESIHRSWDAINRLSNTGSGLQWLTGALHLCSPLTSQDIQHLKDWISETWVNLAMVDYPYASNFLQPLPAWPIKVVCQYLKNPNVSDSLLLQNIFQALNVYYNYSGQVKCLNISETATSSLGTLGWSYQACTEVVMPFCTNGVDDMFEPHSWNLKELSDDCFQQWGVRPRPSWITTMYGGKNISSHTNIVFSNGELDPWSGGGVTKDITDTLVAVTISEGAHHLDLRTKNALDPMSVLLARSLEVRHMKNWIRDFYDSAGKQH
cleavage of the conjugate and release of doxorubicin (native-PAGE, UV absorbance), enzyme in LPM mixture: it was observed that the peptide was not specifically cleaved thereby the drug was not selectively released

B2: cathepsin H (enzyme, UniProt P09668 116-335, looked up, species assumed)
Cathepsin H: YPPSVDWRKKGNFVSPVKNQGACGSCWTFSTTGALESAIAIATGKMLSLAEQQLVDCAQDFNNHGCQGGLPSQAFEYILYNKGIMGEDTYPYQGKDGYCKFQPGKAIGFVKDVANITIYDEEAMVEAVALYNPVSFAFEVTQDFMMYRTGIYSSTSCHKTPDKVNHAVLAVGYGEKNGIPYWIVKNSWGPQWGMNGYFLIERGKNMCGLAACASYPIPLV
cleavage of the conjugate and release of doxorubicin (native-PAGE, UV absorbance), enzyme in LPM mixture: it was observed that the peptide was not specifically cleaved thereby the drug was not selectively released
